Results on six molecules are retold here after publication PMC11352241, “Detection of Hepatocellular Carcinoma in an Orthotopic Patient-Derived Xenograft with an Epithelial Cell Adhesion Molecule-Specific Peptide” (Cancers, 2024).

Broadly, the Kd is the constant that tells how readily two partners part at equilibrium.

One data set can be described thus: Serum stability. It counts as in vitro ADME. To be noted: 30 μM IRDye800-labeled peptide in mouse serum, 37 °C, 0, 0.5, 1.0, 1.5, 2, 3, 4 and 24 h, analytical RP-HPLC area under the peak; R^2 = 0.99; n = 6 mice in each group; read-out: half-life T1/2 in mouse serum (converted). Here is the method: IRDye800-labeled target peptide measuring 30 μM was incubated with mouse serum at time intervals ranging up to 24 h at 37 °C, and was monitored by analytical RP-HPLC. The relative peptide concentrations were determined by measuring the area under the peak (Waters, Breeze 2).

Data set [1] is described as follows: Animal necropsy for acute toxicity. Type of data set: in vivo, mouse. To be noted: healthy mice, 48 h post-injection, 300 μM, 200 μL PBS; heart, liver, spleen, lung, kidney, stomach, intestine, brain. As for the experimental part:
Healthy mice were euthanized at 48 h post-injection with the IRDye800-labeled target peptide (300 μM, 200 μL PBS). Major organs, including liver, kidney, heart, lung, spleen, stomach, intestine, and brain, were resected and submitted for pathological evaluation to assess for acute toxicity.

For data set [2], the system named is human HCC patient-derived xenograft (PDX) tumors. Briefly: In vivo whole-body NIR fluorescence imaging, orthotopic HCC PDX.
Experimental: Orthotopic HCC mice were used for imaging ~3–4 weeks post-implantation.
IRDye800-labeled target and control peptides (300 μM, 200 μL PBS), unlabeled target peptide (block, 1.5 mM, 100 μL), and ICG (2.46 mg/kg) were injected in tumor-bearing animals using the tail vein. Unlabeled target peptide was injected 30 min prior to the IRDye800-labeled target peptide to compete for binding. The Pearl Trilogy (LI-COR Biosciences) was used to collect whole-body NIR fluorescence images over a time frame of 24 h post-injection.
Data set [3] in a line: Peptide biodistribution in harvested organs. It counts as in vivo, mouse. To be noted: organs harvested 1.5 h post-injection, NIR fluorescence. Here is the method:
PDX-implanted mouse livers were exposed by making a small (1–2 cm) incision in the abdomen below the sternum. A custom laparoscope that collects white light and fluorescence images (λex = 785 nm) concurrently were used to image the liver region at 1.5 h post-injection via the tail vein [34]. IRDye800-labeled peptides, unlabeled peptide, and ICG were administrated as described above. Once imaging was completed, major organs, including the heart, spleen, lung, liver, brain, stomach, kidney, and intestine, were collected and imaged with white light and fluorescence to evaluate peptide biodistribution.

The subject of a further data set is tumors. The following applies: ICG, EPR effect; cited from earlier work. The text has this:
An IRDye800-labeled chimeric monoclonal antibody 323/A3 was used to detect a broad range of tumors found clinically. Cell-derived xenograft colon, breast, head and neck, and peritoneal carcinomatosis tumors were implanted orthotopically. Tumor nodules with millimeter dimensions were detected with NIR fluorescence imaging that were not otherwise visible. […] Also, a 7-mer peptide YQ-S2 was labeled with the NIR fluorophore MPA [36]. The peptide was character ... || Image-guided surgery aims to remove all cancerous tissues, and thus requires an effective strategy to discriminate tumor cells from non-tumor cells. NIR fluorescence imaging can be used as an adjunct to conventional laparoscopy to assist the surgeon to identify small and missed lesions. The spectra of white light illumination and IRDye800 fluorescence are sufficiently separated so that both modalities can be used concurrently during surgery. ICG is FDA-approved, and this contrast agent is currently being used clinically to identify HCC in real time. The non-specific NIR dye gathers in t ...

In data set [4] the target is T1, EpCAM (Homo sapiens, UniProt P16422).
T1 construct: endogenous in cells; host or cells: Hep3B human hepatocellular carcinoma cells
T1 sequence (P16422 24-314): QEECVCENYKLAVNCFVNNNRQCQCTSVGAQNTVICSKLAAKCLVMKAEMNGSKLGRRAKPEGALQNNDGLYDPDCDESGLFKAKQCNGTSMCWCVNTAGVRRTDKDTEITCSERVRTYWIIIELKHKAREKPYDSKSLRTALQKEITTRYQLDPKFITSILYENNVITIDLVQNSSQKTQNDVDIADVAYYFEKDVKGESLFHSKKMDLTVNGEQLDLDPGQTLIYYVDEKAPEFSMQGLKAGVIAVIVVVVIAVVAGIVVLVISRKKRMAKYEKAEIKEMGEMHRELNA
Briefly: Binding competition with unlabeled peptide on Hep3B cells. It counts as cell-based. The following applies: confocal microscopy. Here is the method:
Unlabeled target and control peptide was added to IRDye800-labeled target peptides to compete for binding to EpCAM. Inverted confocal microscopy (Leica, Wetzlar, Germany, Stellaris 5) was used to acquire the NIR fluorescence images, and intensities were measured with custom MATLAB (Mathworks) software (Matlab version R2023a).

The target of data set [5] is EpCAM. To be noted: read-out: binding affinity kd; cited from earlier work. The text has this:
An IRDye800-labeled chimeric monoclonal antibody 323/A3 was used to detect a broad range of tumors found clinically. Cell-derived xenograft colon, breast, head and neck, and peritoneal carcinomatosis tumors were implanted orthotopically. Tumor nodules with millimeter dimensions were detected with NIR fluorescence imaging that were not otherwise visible. […] Also, a 7-mer peptide YQ-S2 was labeled with the NIR fluorophore MPA [36]. The peptide was character ...

The target in a further data set is T2, HPD*-IRDye800.
T2 chain: HPDMFTRTHSHNGGGSC-IRDye800
Briefly: Hep3B cell binding.

Residues, ends and D or L forms follow the SMILES beside them. No end group written: not given here. *: point of attachment. X2 = CC1(C)C(=CC=C2CCCC(C=CC3=[N+](CCCCS(=O)(=O)[O-])c4ccc(S(=O)(=O)O)cc4C3(C)C)=C2Oc2ccc(S(=O)(=O)O)cc2)N(CCCCCC(=O)NCCN2C(=O)CC(*)C2=O)c2ccc(S(=O)(=O)O)cc21; IRDye800 = IRDye800 near-infrared fluorophore

As to `CSCC[C@H](NC(=O)[C@H](CC(=O)O)NC(=O)[C@@H]1CCCN1C(=O)[C@@H](N)Cc1c[nH]cn1)C(=O)N[C@@H](Cc1ccccc1)C(=O)N[C@H](C(=O)N[C@@H](CCCNC(=N)N)C(=O)N[C@H](C(=O)N[C@@H](Cc1c[nH]cn1)C(=O)N[C@@H](CO)C(=O)N[C@@H](Cc1c[nH]cn1)C(=O)N[C@@H](CC(N)=O)C(=O)NCC(=O)NCC(=O)NCC(=O)N[C@@H](CO)C(=O)N[C@@H](CSC1CC(=O)N(CCNC(=O)CCCCCN2C(=CC=C3CCCC(C=CC4=[N+](CCCCS(=O)(=O)[O-])c5ccc(S(=O)(=O)O)cc5C4(C)C)=C3Oc3ccc(S(=O)(=O)O)cc3)C(C)(C)c3cc(S(=O)(=O)O)ccc32)C1=O)C(N)=O)[C@@H](C)O)[C@@H](C)O` (some centres unmarked) [HPD*-IRDye800] (H-HPDMFTRTHSHNGGGSC(X2)-NH2), the half-life at 30 μM in “Serum stability” is 2.6 h. Also, the “acute toxicity on histopathology of major organs” value in data set [1] is given as “No signs of acute peptide toxicity”. The “time of return of intensity to baseline” value in data set [2] (whole-body fluorescence images post-injection) was ~ 24 h. The “time of peak uptake by HCC tumor post-injection” value in data set [2] (whole-body fluorescence, 300 μM, 200 μL PBS, tail vein, orthotopic HCC PDX in NSG mice, n = 6) worked out at 1.5 h. Besides, the uptake in kidney result in data set [3] is given as “High uptake”. `CC1(C)C(/C=C/C=C/C=C/C=C2\N(CCCCS(=O)(=O)O)c3ccc4ccccc4c3C2(C)C)=[N+](CCCCS(=O)(=O)[O-])c2ccc3ccccc3c21` [ICG, indocyanine green, reference compound]: the “time of maximum tumor absorption post-injection” value with tumors is given as above 48 h. Further, in data set [2] (whole-body imaging, 1.5 h post-injection, tail vein, labeled peptides 300 μM, 200 μL, block = unlabeled HPD* before HPD*-IRDye800, ICG 2.46 mg/kg, mean ± SD, n = 6), the “T/B ratio at peak uptake” value came out at 1.26 ± 0.05. Regarding “HPDMFTRTHSHN [HPD*, unlabeled 12-mer EpCAM target peptide …]”, on EpCAM [4], the “effect of unlabeled peptide on HPD*-IRDye800 fluorescence intensity” value is “decrease significantly”.

Turning to “PFHDMHSNHTRT [PFH*, unlabeled scrambled control peptide …]”, on EpCAM [4], the “effect of unlabeled peptide on HPD*-IRDye800 fluorescence intensity” value is “did not show an intensity reduction”. “SNFYMPL [7-mer EpCAM peptide used to label a pH-sensitive polymeric micelle encapsulating paclitaxel]”: the Kd at EpCAM [5] is 164 nM.

B1: EpCAM (protein)
chain: QEECVCENYKLAVNCFVNNNRQCQCTSVGAQNTVICSKLAAKCLVMKAEMNGSKLGRRAKPEGALQNNDGLYDPDCDESGLFKAKQCNGTSMCWCVNTAGVRRTDKDTEITCSERVRTYWIIIELKHKAREKPYDSKSLRTALQKEITTRYQLDPKFITSILYENNVITIDLVQNSSQKTQNDVDIADVAYYFEKDVKGESLFHSKKMDLTVNGEQLDLDPGQTLIYYVDEKAPEFSMQGLK
Turning to B1, in the data set with HPD*-IRDye800, the affinity, expressed as Kd, was 67 nM.
